{"source": "patent US20100111959A1", "binders": {"B1": {"name": "mAb Lc-2B03 + Hc2 M34S, M100L (antibody, human IgG1, V domains shown)", "VH": "QVTLKESGPVLVKPTETLTLTCTVSGFSLSTYGSGVGWIRQPPGKALEWLAHIWWDDVKRYNPALKSRLTISKDTSKSQVVLTMTNMDPVDTATYYCARLGSDYDVWFDYWGQGTLVTVSS", "VL": "EIVLTQSPATLSLSPGERATLSCRASKSISKYLAWYQQKPGQAPRLLIYSGSTLQSGIPARFSGSGSGTDFTLTISSLEPEDFAVYYCQQHDYPYTFGQGTKLEIKR"}, "B2": {"name": "mAb Lc-2B03 + Hc2 M34E, M100L (antibody, human IgG1, V domains shown)", "VH": "B1 VH with S34E", "VL": "B1 VL"}, "B3": {"name": "mAb Lc-2B03 + Hc2 T31S, M34V, M100L (antibody, human IgG1, V domains shown)", "VH": "B1 VH with T31S, S34V", "VL": "B1 VL"}, "B4": {"name": "mAb Lc-2B03 + Hc2 T31S, M34S, M100L, V106I (antibody, human IgG1, V domains shown)", "VH": "B1 VH with T31S, V106I", "VL": "B1 VL"}, "B5": {"name": "mAb Lc-2B03 + Hc2 M34S, M100L, V106I (antibody, human IgG1, V domains shown)", "VH": "B1 VH with V106I", "VL": "B1 VL"}, "B6": {"name": "mAb Lc-2B03 + Hc2 M34V, M100L, V106I (antibody, human IgG1, V domains shown)", "VH": "B1 VH with S34V, V106I", "VL": "B1 VL"}, "B7": {"name": "mAb Lc-2B03 + Hc2 M34V, M100L (antibody, human IgG1, V domains shown)", "VH": "B1 VH with S34V", "VL": "B1 VL"}, "B8": {"name": "mAb Lc-2B03 + Hc2 M34E, M100L, V106I (antibody, human IgG1, V domains shown)", "VH": "B1 VH with S34E, V106I", "VL": "B1 VL"}, "B9": {"name": "mAb Lc-2B03 + Hc2 M34Q, M100L (antibody, human IgG1, V domains shown)", "VH": "B1 VH with S34Q", "VL": "B1 VL"}, "B10": {"name": "mAb Lc-2B03 + Hc2 T31S, M34S, M100L (antibody, human IgG1, V domains shown)", "VH": "B1 VH with T31S", "VL": "B1 VL"}, "B11": {"name": "Lc15Hc1 (antibody, human IgG1, V domains shown)", "VH": "B1 VH with V10A, E16Q, V24F, S34M, S78N, L100M", "VL": "VIWMTQSPSLLSASTGDRVTISCRASKSISKYLAWYQQKPGKAPELLIYSGSTLQSGVPSRFSGSGSGTDFTLTISCLQSEDFATYYCQQHNEYPYTFGGGTKVEIK"}, "B12": {"name": "Lc7Hc1 (antibody, human IgG1, V domains shown)", "VL": "DIQLTQSPSSLSASVGDRVTITCRASKSISKYLAWYRQKPGKVPKLLIYSGSTLQSGVPSRFSGSGSGTDFTLTISSLQPEDVATYYGQQHNEYPYTFGQGTKLEIK", "VH": "B1 VH with V10A, E16Q, V24F, S34M, S78N, L100M"}, "B13": {"name": "Lc3Hc6 (antibody, human IgG1, V domains shown)", "VH": "QVQLVESGGGVVQPGRSLRLSCAASGFSLSTYGMGVGWVRQAPGKGLEWVAHIWWDDVKRYNPALKSRFTISRDNSKNTLYLQMNSLRAEDTAVYYCARMGSDYDVWFDYWGQGTLVTVSS", "VL": "B12 VL with D1A, R37Q, V43A, V83F, G88C, Q100G, L104V"}, "B14": {"name": "Lc7Hc6 (antibody, human IgG1, V domains shown)", "VL": "B12 VL", "VH": "B13 VH"}}, "note": "Changes are numbered by the printed parent chain. Numbers in names are those of the source. Where “and” joins values, the source holds several entries; their conditions need not be identical. Equal entries are not always repeated."}
{"molecular_target": "human IL-13 R130Q variant (R110Q of the mature chain) (human) (UniProt P35225)", "assay": "Biacore SPR, mAb from HEK293"}
{"binder": "B1", "Kd": "0.0014 nM"}
{"binder": "B2", "Kd": "0.0076 nM"}
{"binder": "B3", "Kd": "0.0037 nM"}
{"binder": "B4", "Kd": "0.0152 nM"}
{"binder": "B5", "Kd": "0.0205 nM and 0.0209 nM"}
{"binder": "B6", "Kd": "0.0252 nM"}
{"binder": "B7", "Kd": "0.0164 nM"}
{"binder": "B8", "Kd": "0.0114 nM"}
{"binder": "B9", "Kd": "0.0243 nM"}
{"binder": "B10", "Kd": "0.0123 nM"}
{"molecular_target": "human IL-13 R130Q variant (R110Q of the mature chain) (human) (UniProt P35225)", "assay": "direct binding ELISA, crude supernatant, relative to Lc16Hc7", "units": {"Percent IL-13 R130Q (30 ng/ml) Binding": "%"}}
{"binder": "B11", "Percent IL-13 R130Q (30 ng/ml) Binding": 76.2}
{"binder": "B12", "Percent IL-13 R130Q (30 ng/ml) Binding": -1.4}
{"binder": "B13", "Percent IL-13 R130Q (30 ng/ml) Binding": 26.6}
{"binder": "B14", "Percent IL-13 R130Q (30 ng/ml) Binding": -0.3}
{"molecular_target": "human IL-13 R130Q variant (R110Q of the mature chain) (human) (UniProt P35225)", "assay": "IL-13Ra2 binding inhibition ELISA, crude supernatant", "units": {"Percent Inhibition IL-13 R130Q (333 ng/ml) to Ra2": "%"}}
{"binder": "B11", "Percent Inhibition IL-13 R130Q (333 ng/ml) to Ra2": 44}
{"binder": "B12", "Percent Inhibition IL-13 R130Q (333 ng/ml) to Ra2": 6}
{"binder": "B13", "Percent Inhibition IL-13 R130Q (333 ng/ml) to Ra2": 14}
{"binder": "B14", "Percent Inhibition IL-13 R130Q (333 ng/ml) to Ra2": 4}
{"molecular_target": "human IL-13 R130Q variant (R110Q of the mature chain) (human) (UniProt P35225)", "assay": "Biacore SPR, mAb from CHO", "units": {"Kd": "nM"}}
{"binder": "B1", "Kd": 0.0184}
{"binder": "B3", "Kd": 0.0058}
{"binder": "B4", "Kd": 0.0211}
{"binder": "B7", "Kd": 0.019}
{"binder": "B9", "Kd": 0.0251}
{"binder": "B10", "Kd": 0.0101}
